Data reported in US20260242731A1.
Each block holds one substance with its values, some of them ahead of it.

Key:
CD19 antibody FMC63 [1] = test: biolayer interferometry, FMC63 immobilized
[2] = target: FMC63-derived anti-CD19 28z CAR on primary T cells; test: flow cytometry, FITC-labeled protein titrated on anti-CD19 28z CAR primary T cells, four-parameter fit
CD19.1-Fc (Human) [3] = test: on-bead anti-CD19-FITC (FMC63) binding assay
CD19.1-Fc (Human) [4] = test: on-bead fluorescence binding capacity assay; CD19.1-Fc coated beads
[5] = target: custom-produced WT etCD19-Fc (Human; human) (UniProt P15391); test: on-bead fluorescence binding capacity assay; wtCD19 Fc coated beads
CD19.1-Fc (Human) [6] = test: on-bead fluorescence binding capacity assay; beads CD19.1-Fc (0.5 x moles)
CD19.1-Fc (Human) [7] = test: on-bead fluorescence binding capacity assay; beads CD19.1-Fc (1.0 x moles)
CD19.1-Fc (Human) [8] = test: on-bead fluorescence binding capacity assay; beads CD19.1-Fc (2.0 x moles)
CD19.1-Fc (Human) [9] = test: on-bead fluorescence binding capacity assay; beads CD19.1-Fc (5.0 x moles)
CD19.1-His (Human) [10] = target: CD19.1-His (Human) (UniProt P15391); test: on-bead fluorescence binding capacity assay; beads CD19.1-His (0.5 x moles)
CD19.1-His (Human) [11] = target: CD19.1-His (Human) (UniProt P15391); test: on-bead fluorescence binding capacity assay; beads CD19.1-His (1.0 x moles)
CD19.1-His (Human) [12] = target: CD19.1-His (Human) (UniProt P15391); test: on-bead fluorescence binding capacity assay; beads CD19.1-His (2.0 x moles)
CD19.1-His (Human) [13] = target: CD19.1-His (Human) (UniProt P15391); test: on-bead fluorescence binding capacity assay; beads CD19.1-His (5.0 x moles)
CD19.1-Fc (Human) [14] = test: direct ELISA, CD19 variant coated on plate (2D), FMC63-HRP titrated, OD450nm
CD19.1-Fc (Human) [15] = test: on-bead ELISA, HRP-conjugated FMC63 titrated on CD19.1 Fc coated beads, absorbance at 450 nm, four-parameter logistic fit
CD19.1-His (Human) [16] = target: CD19.1-His (Human) (UniProt P15391); test: on-bead ELISA, HRP-conjugated FMC63 titrated on CD19.1 His coated beads, absorbance at 450 nm, four-parameter logistic fit
[17] = target: WT etCD19-His (Acrobiosystems) (Human) (UniProt P15391); test: on-bead ELISA, HRP-conjugated FMC63 titrated on wtCD19 His coated beads, absorbance at 450 nm, four-parameter logistic fit
CD19 antibody FMC63 [18] = test: biolayer interferometry, FMC63 immobilized; stronger non-specific binding noted
[19] = target: FMC63-scFv-41BBz CAR on Jurkat-Lucia NFAT cells; test: cell-based or functional assay

- Kd (CD19 antibody FMC63 [1]): 0.103 nM
- EC50 [2]: 1.9 nM
Substance: CD19.1-Fc (Fc fusion)

- fold binding capacity (functional antigen density) against wtCD19 coated beads (times higher than wtCD19 coated beads) (CD19.1-Fc (Human) [3]): 3.5
- Moles of antibody per mg of beads (mol per mg of beads) (CD19.1-Fc (Human) [4]): 4.6e-13
- Percentage of CD19.1 or wt CD19 Fc molecules bound by anti-CD19-FITC (FMC63) (CD19.1-Fc (Human) [4]): 1.36%
- Moles of antibody per mg of beads (mol per mg of beads) [5]: 1.3e-13
- Percentage of CD19.1 or wt CD19 Fc molecules bound by anti-CD19-FITC (FMC63) [5]: 0.37%
- % of CD19.1 molecules bound by anti-CD19-FITC (CD19.1-Fc (Human) [6]): 0.7%
- Moles of antibody per mg of beads (mol per mg of beads) (CD19.1-Fc (Human) [6]): 2.8e-13
- % of CD19.1 molecules bound by anti-CD19-FITC (CD19.1-Fc (Human) [7]): 0.87%
- Moles of antibody per mg of beads (mol per mg of beads) (CD19.1-Fc (Human) [7]): 4.1e-13
- % of CD19.1 molecules bound by anti-CD19-FITC (CD19.1-Fc (Human) [8]): 1.21%
- Moles of antibody per mg of beads (mol per mg of beads) (CD19.1-Fc (Human) [8]): 6e-13
- % of CD19.1 molecules bound by anti-CD19-FITC (CD19.1-Fc (Human) [9]): 1.86%
- Moles of antibody per mg of beads (mol per mg of beads) (CD19.1-Fc (Human) [9]): 1e-12
- % of CD19.1 molecules bound by anti-CD19-FITC (CD19.1-His (Human) [10]): 0.8%
- Moles of antibody per mg of beads (mol per mg of beads) (CD19.1-His (Human) [10]): 4.9e-13
- % of CD19.1 molecules bound by anti-CD19-FITC (CD19.1-His (Human) [11]): 0.76%
- Moles of antibody per mg of beads (mol per mg of beads) (CD19.1-His (Human) [11]): 5.1e-13
- % of CD19.1 molecules bound by anti-CD19-FITC (CD19.1-His (Human) [12]): 1.66%
- Moles of antibody per mg of beads (mol per mg of beads) (CD19.1-His (Human) [12]): 1.14e-12
- % of CD19.1 molecules bound by anti-CD19-FITC (CD19.1-His (Human) [13]): 2.17%
- Moles of antibody per mg of beads (mol per mg of beads) (CD19.1-His (Human) [13]): 2e-12
- EC50 (read off the curve) (CD19.1-Fc (Human) [14]): 4 ng/mL
- EC50 (CD19.1-Fc (Human) [15]): 0.59 nM
- EC50 (CD19.1-His (Human) [16]): 0.36 nM
- EC50 [17]: 0.68 nM
Substance: CD19 antibody FMC63

- Kd (CD19 antibody FMC63 [1]): 3.18 nM
- EC50 [2]: 15.8 nM
Substance: CD19.1-His (from UniProt P15391 20-291)

- Kd (CD19 antibody FMC63 [18]): 7.18 nM
Substance: WT etCD19-His (Acrobiosystems) (from UniProt P15391 20-291)

- Kd (CD19 antibody FMC63 [18]): 3.88 nM
Substance: purchased WT etCD19-His (from UniProt P15391 20-291)

- maximum stimulation against TransAct at 1:100 dilution (fold stronger than TransAct) [19]: 3.4
Substance: CD19.1 (immobilized on plates or coated on beads; tagged version not stated) (from UniProt P15391 20-291)
